Laboratory results: US20130266579A1

Key:
[1] = molecular target: human epidermal growth factor receptor (EGFR) (human) (UniProt P00533); experiment: cell-based or functional assay
[2] = molecular target: human epidermal growth factor receptor (EGFR) on cells and tissues (human) (UniProt P00533); experiment: in vivo fluorescence imaging

fold increase of tumor DL755 signal over 7 days [2]	Substance	EC50 for Cell Growth Inhibition (CGI), Keratinocyte (HEK-N) cells [1]	EC50 for Cell Growth Inhibition (CGI), A431 cells [1]
	Saporin conjugated Y104D	0.0158 µg/mL	
	Saporin conjugated Y104D/Q111P	0.0225 µg/mL	0.0024 µg/mL
3 fold	control Human IgG (antibody)		
